Measured values published in paper PMC4837482, “The complex binding mode of the peptide hormone H2 relaxin to its receptor RXFP1” (Nature Communications, 2016).
One block for each molecule: values may come before it.

Tests used:
RXFP1 F50A^ins = target: T1, RXFP1 F50A^ins (Homo sapiens, UniProt Q9HBX9, INS72A); test: Eu-H2 relaxin saturation binding assay, transfected HEK293T cells; details: F50A^Ins-RXFP1 versus wild-type RXFP1
T1 construct: transiently transfected human embryonic kidney (HEK) 293T cells expressing full-length RXFP1 and mutants; expressed in transfected cells; host or cells: HEK293T
T1 sequence (Q9HBX9 with tags, fused parts or gaps INS72A limits assumed): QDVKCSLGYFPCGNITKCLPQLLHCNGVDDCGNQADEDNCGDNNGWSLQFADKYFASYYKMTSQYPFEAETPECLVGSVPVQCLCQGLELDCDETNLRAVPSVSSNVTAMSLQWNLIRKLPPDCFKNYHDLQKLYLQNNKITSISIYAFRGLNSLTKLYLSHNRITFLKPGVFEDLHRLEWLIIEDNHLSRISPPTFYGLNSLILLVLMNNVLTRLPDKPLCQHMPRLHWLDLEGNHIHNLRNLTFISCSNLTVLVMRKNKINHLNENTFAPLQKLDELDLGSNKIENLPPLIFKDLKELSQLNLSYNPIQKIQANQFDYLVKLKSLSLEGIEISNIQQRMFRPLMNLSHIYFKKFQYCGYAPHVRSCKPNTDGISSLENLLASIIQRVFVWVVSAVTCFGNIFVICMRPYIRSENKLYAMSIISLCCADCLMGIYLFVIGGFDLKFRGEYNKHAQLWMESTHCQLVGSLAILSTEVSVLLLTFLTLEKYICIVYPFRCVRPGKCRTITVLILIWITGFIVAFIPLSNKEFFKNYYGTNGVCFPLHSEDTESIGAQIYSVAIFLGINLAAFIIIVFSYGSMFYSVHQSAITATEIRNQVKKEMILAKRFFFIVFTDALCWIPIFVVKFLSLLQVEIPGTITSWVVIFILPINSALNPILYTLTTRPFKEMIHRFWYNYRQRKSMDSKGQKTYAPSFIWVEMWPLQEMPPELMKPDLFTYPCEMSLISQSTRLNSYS

[1] = target: RXFP1 A55L, full length (human)
[2] = target: T2, RXFP1 A68^Δ, full length (human) (UniProt Q9HBX9)
T2 sequence: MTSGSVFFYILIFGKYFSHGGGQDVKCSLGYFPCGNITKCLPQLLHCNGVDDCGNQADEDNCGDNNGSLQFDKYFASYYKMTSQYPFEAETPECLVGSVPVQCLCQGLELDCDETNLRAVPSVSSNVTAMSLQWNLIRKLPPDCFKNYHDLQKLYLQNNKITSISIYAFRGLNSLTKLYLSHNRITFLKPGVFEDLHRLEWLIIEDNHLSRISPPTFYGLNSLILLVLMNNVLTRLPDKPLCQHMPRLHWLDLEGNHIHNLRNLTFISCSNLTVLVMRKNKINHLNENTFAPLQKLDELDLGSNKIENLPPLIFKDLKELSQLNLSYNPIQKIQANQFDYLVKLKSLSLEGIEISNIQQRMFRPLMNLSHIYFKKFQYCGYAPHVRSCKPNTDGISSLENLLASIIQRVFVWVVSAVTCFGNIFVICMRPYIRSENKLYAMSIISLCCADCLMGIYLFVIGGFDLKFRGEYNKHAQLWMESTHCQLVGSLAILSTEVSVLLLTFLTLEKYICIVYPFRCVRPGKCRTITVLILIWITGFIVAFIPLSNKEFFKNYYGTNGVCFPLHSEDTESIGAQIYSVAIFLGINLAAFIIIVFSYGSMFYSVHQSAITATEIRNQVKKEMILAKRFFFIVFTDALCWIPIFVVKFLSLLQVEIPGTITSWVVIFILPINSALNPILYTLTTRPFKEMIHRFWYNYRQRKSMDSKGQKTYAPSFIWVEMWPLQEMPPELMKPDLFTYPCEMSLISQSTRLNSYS

[3] = target: RXFP1 E67A^ins, full length (human)
[4] = target: RXFP1 F50A^ins, full length (human)
[5] = target: RXFP1 F54A/Y58A, full length (human)
[6] = target: RXFP1 G45A, full length (human)
[7] = target: RXFP1 K52A, full length (human)
[8] = target: RXFP1 M60A, full length (human)
[9] = target: RXFP1 N43A/N44A, full length (human)
[10] = target: RXFP1 N44A, full length (human)
[11] = target: RXFP1 Q49A/F50A, full length (human)
[12] = target: RXFP1 S47A/L48A, full length (human)
[13] = target: RXFP1 T61A, full length (human)
[14] = target: RXFP1 Y57A, full length (human)
[15] = target: RXFP1 Y58A, full length (human)
[16] = target: relaxin family peptide receptor-1 (RXFP1), wild type, full length (human) (UniProt Q9HBX9)

Molecule: H2 relaxin: two-chain 6-kDa peptide hormone structurally related to insulin; recombinant human gene-2 H2 relaxin provided by Corthera
loss of binding to H2 relaxin (RXFP1 F50A^ins): 25 fold

H2 relaxin-induced cAMP response (pCRE β-galactosidase reporter, HEK293T), pEC50 [1]: 10.8 pEC50
H2 relaxin-induced cAMP response (pCRE β-galactosidase reporter, HEK293T), pEC50 [2]: 11.2 pEC50
H2 relaxin-induced cAMP response (pCRE β-galactosidase reporter, HEK293T), pEC50 [3]: 11.3 pEC50
H2 relaxin-induced cAMP response (pCRE β-galactosidase reporter, HEK293T), pEC50 [4]: 9.41 pEC50
H2 relaxin-induced cAMP response (pCRE β-galactosidase reporter, HEK293T), pEC50 [5]: 9.87 pEC50
H2 relaxin-induced cAMP response (pCRE β-galactosidase reporter, HEK293T), pEC50 [6]: 7.48 pEC50
H2 relaxin-induced cAMP response (pCRE β-galactosidase reporter, HEK293T), pEC50 [7]: 11.1 pEC50
H2 relaxin-induced cAMP response (pCRE β-galactosidase reporter, HEK293T), pEC50 [8]: 11.2 pEC50
H2 relaxin-induced cAMP response (pCRE β-galactosidase reporter, HEK293T), pEC50 [9]: 8.29 pEC50
H2 relaxin-induced cAMP response (pCRE β-galactosidase reporter, HEK293T), pEC50 [10]: 11 pEC50
H2 relaxin-induced cAMP response (pCRE β-galactosidase reporter, HEK293T), pEC50 [11]: 9.17 pEC50
H2 relaxin-induced cAMP response (pCRE β-galactosidase reporter, HEK293T), pEC50 [12]: 11.1 pEC50
H2 relaxin-induced cAMP response (pCRE β-galactosidase reporter, HEK293T), pEC50 [13]: 11.2 pEC50
H2 relaxin-induced cAMP response (pCRE β-galactosidase reporter, HEK293T), pEC50 [14]: 10.9 pEC50
H2 relaxin-induced cAMP response (pCRE β-galactosidase reporter, HEK293T), pEC50 [15]: 10.9 pEC50
H2 relaxin-induced cAMP response (pCRE β-galactosidase reporter, HEK293T), pEC50 [16]: 11 pEC50
B1: H2 relaxin (ligand, human)
chain 1: QLYSALANKCCHVGCTKRSLARFC
chain 2: DSWMEEVIKLCGRELVRAQIAICGMSTWS
